From US20100015650

Target: T1, BRB1 tyrosine kinase substrate peptide
T1 chain: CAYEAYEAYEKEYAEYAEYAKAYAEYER

B1: FES (protein)
chain: MGFSSELCSPQGHGVLQQMQEAELRLLEGMRKWMAQRVKSDREYAGLLHHMSLQDSGGQSRAISPDSPISQSWAEITSQTEGLSRLLRQHAEDLNSGPLSKLSLLIRERQQLRKTYSEQWQQLQQELTKTHSQDIEKLKSQYRALARDSAQAKRKYQEASKDKDRDKAKDKYVRSLWKLFAHHNRYVLGVRAAQLHHQHHHQLLLPGLLRSLQDLHEEMACILKEILQEYLEISSLVQDEVVAIHREMAAAAARIQPEAEYQGFLRQYGSAPDVPPCVTFDESLLEEGEPLEPGELQLNELTVESVQHTLTSVTDELAVATEMVFRRQEMVTQLQQELRNEEENTHPRERVQLLGKRQVLQEALQGLQVALCSQAKLQAQQELLQTKLEHLGPGEPPPVLLLQDDRHSTSSSEQEREGGRTPTLEILKSHISGIFRPKFSLPPPLQLIPEVQKPLHEQLWYHGAIPRAEVAELLVHSGDFLVRESQGKQEYVLSVLWDGLPRHFIIQSLDNLYRLEGEGFPSIPLLIDHLLSTQQPLTKKSGVVLHRAVPKDKWVLNHEDLVLGEQIGRGNFGEVFSGRLRADNTLVAVKSCRETLPPDLKAKFLQEARILKQYSHPNIVRLIGVCTQKQPIYIVMELVQGGDFLTFLRTEGARLRVKTLLQMVGDAAAGMEYLESKCCIHRDLAARNCLVTEKNVLKISDFGMSREEADGVYAASGGLRQVPVKWTAPEALNYGRYSSESDVWSFGILLWETFSLGASPYPNLSNQQTREFVEKGGRLPCPELCPDAVFRLMEQCWAYEPGQRPSFSTIYQELQSIRKRHR
In the case of B1, the Signal to Noise Ratio with BRB1 Peptide (TR-FRET kinase assay; kinase 1 nM) is reported as 24.9.

B2: FAK (protein)
chain: LANSEKQGMRTHAVSVSETDDYAEIIDEEDTYTMPSTRDYEIQRERIELGRCIGEGQFGDVHQGIYMSPENPALAVAIKTCKNCTSDSVREKFLQEALTMRQFDHPHIVKLIGVITENPVWIIMELCTLGELRSFLQVRKYSLDLASLILYAYQLSTALAYLESKRFVHRDIAARNVLVSSNDCVKLGDFGLSRYMEDSTYYKASKGKLPIKWMAPESINFRRFTSASDVWMFGVCMWEILMHGVKPFQGVKNNDVIGRIENGERLPMPPNCPPTLYSLMTKCWAYDPSRRPRFTELKAQLSTILEEEKAQQEERMRMESRRQATVSWDSGGSDEAPPKPSRPGYPSPRSSEGFYPSPQHMVQTNHYQVSGYPGSHGITAMAGSIYPGQASLLDQTDSWNHRPQEIAMWQPNVEDSTVLDLRGIGQVLPTHLMEERLIRQQQEMEEDQRWLEKEERFLKPDVRLSRGSIDREDGSLQGPIGNQHIYQPVGKPDPAAPPKKPPRPGAPGHLGSLASLSSPADSYNEGVKLQPQEISPPPTANLDRSNDKVYENVTGLVKAVIEMSSKIQPAPPEEYVPMVKEVGLALRTLLATVDETIPLLPASTHREIEMAQKLLNSDLGELINKMKLAQQYVMTSLQQEYKKQMLTAAHALAVDAKNLLDVIDQARLKMLGQTRPH
With B2 the Signal to Noise Ratio with BRB1 Peptide (TR-FRET kinase assay; kinase 3 nM) was 1.7.

B3: TEC (protein)
chain: MNFNTILEEILIKRSQQKKKTSPLNYKERLFVLTKSMLTYYEGRAEKKYRKGFIDVSKIKCVEIVKNDDGVIPCQNKYPFQVVHDANTLYIFAPSPQSRDLWVKKLKEEIKNNNNIMIKYHPKFWTDGSYQCCRQTEKLAPGCEKYNLFESSIRKALPPAPETKKRRPPPPIPLEEEDNSEEIVVAMYDFQAAEGHDLRLERGQEYLILEKNDVHWWRARDKYGNEGYIPSNYVTGKKSNNLDQYEWYCRNMNRSKAEQLLRSEDKEGGFMVRDSSQPGLYTVSLYTKFGGEGSSGFRHYHIKETTTSPKKYYLAEKHAFGSIPEIIEYHKHNAAGLVTRLRYPVSVKGKNAPTTAGFSYEKWEINPSELTFMRELGSGLFGVVRLGKWRAQYKVAIKAIREGAMCEEDFIEEAKVMMKLTHPKLVQLYGVCTQQKPIYIVTEFMERGCLLNFLRQRQGHFSRDVLLSMCQDVCEGMEYLERNSFIHRDLAARNCLVSEAGVVKVSDFGMARYVLDDQYTSSSGAKFPVKWCPPEVFNYSRFSSKSDVWSFGVLMWEVFTEGRMPFEKYTNYEVVTMVTRGHRLYQPKLASNYVYEVMLRCWQEKPEGRPSFEDLLRTIDELVECEETFGR
For B3, the Signal to Noise ratio with BRB1 Peptide (TR-FRET kinase assay; kinase 0.5 nM) was 18.6.

B4: FER (protein)
chain: KSGVVLLNPIPKDKKWILSHEDVILGELLGKGNFGEVYKGTLKDKTSVAVKTCKEDLPQELKIKFLQEAKILKQYDHPNIVKLIGVCTQRQPVYIIMELVSGGDFLTFLRRKKDELKLKQLVKFSLDAAAGMLYLESKNCIHRDLAARNCLVGENNVLKISDFGMSRQEDGGVYSSSGLKQIPIKWTAPEALNYGRYSSESDVWSFGILLWETFSLGVCPYPGMTNQQAREQVERGYRMSAPQHCPEDISKIMMKCWDYKPENRPKFSELQKELTIIKRKLT
For B4, the Signal to Noise ratio with BRB1 Peptide (TR-FRET kinase assay; kinase 0.25 nM) was 31.

B5: ITK (protein)
chain: NNFILLEEQLIKKSQQKRRTSPSNFKVRFFVLTKASLAYFEDRHGKKRTLKGSIELSRIKCVEIVKSDISIPCHYKYPFQVVHDNYLLYVFAPDRESRQRWVLALKEETRNNNSLVPKYHPNFWMDGKWRCCSQLEKLATGCAQYDPTKNASKKPLPPTPEDNRRPLWEPEETVVIALYDYQTNDPQELALRRNEEYCLLDSSEIHWWRVQDRNGHEGYVPSSYLVEKSPNNLETYEWYNKSISRDKAEKLLLDTGKEGAFMVRDSRTAGTYTVSVFTKAVVSENNPCIKHYHIKETNDNPKRYYVAEKYVFDSIPLLINYHQHNGGGLVTRLRYPVCFGRQKAPVTAGLRYGKWVIDPSELTFVQEIGSGQFGLVHLGYWLNKDKVAIKTIREGAMSEEDFIEEAEVMMKLSHPKLVQLYGVCLEQAPICLVFEFMEHGCLSDYLRTQRGLFAAETLLGMCLDVCEGMAYLEEACVIHRDLAARNCLVGENQVIKVSDFGMTRFVLDDQYTSSTGTKFPVKWASPEVFSFSRYSSKSDVWSFGVLMWEVFSEGKIPYENRSNSEVVEDISTGFRLYKPRLASTHVYQIMNHCWKERPEDRPAFSRLLRQLAEIAESGL
B5 was tested, and the Signal to Noise ratio with BRB1 Peptide (TR-FRET kinase assay; kinase 0.5 nM) was 8.4.

B6: LYNb (protein)
chain: MGCIKSKGKDSLSDDGVDLKTQPVPESQLLPGQRFQTKDPEEQGDIVVALYPYDGIHPDDLSFKKGEKMKVLEEHGEWWKAKSLLTKKEGFIPSNYVAKLNTLETEEWFFKDITRKDAERQLLAPGNSAGAFLIRESETLKGSFSLSVRDFDPVHGDVIKHYKIRSLDNGGYYISPRITFPCISDMIKHYQKQADGLCRRLEKACISPKPQKPWDKDAWEIPRESIKLVKRLGAGQFGEVWMGYYNNSTKVAVKTLKPGTMSVQAFLEEANLMKTLQHDKLVRLYAVVTREEPIYIITEYMAKGSLLDFLKSDEGGKVLLPKLIDFSAQIAEGMAYIERKNYIHRDLRAANVLVSESLMCKIADFGLARVIEDNEYTAREGAKFPIKWTAPEAINFGCFTIKSDVWSFGILLYEIVTYGKIPYPGRTNADVMTALSQGYRMPRVENCPDELYDIMKMCWKEKAEERPTFDYLQSVLDDFYTATEGQYQQQP
In the case of B6, the Signal to Noise Ratio with BRB1 Peptide (TR-FRET kinase assay; kinase 1 nM) is reported as 33.1.

B7: JAK2 (protein)
chain: RIGALGFSGAFEDRDPTQFEERHLKFLQQLGKGNFGSVEMCRYDPLQDNTGEVVAVKKLQHSTEEHLRDFEREIEILKSLQHDNIVKYKGVCYSAGRRNLKLIMEYLPYGSLRDYLQKHKERIDHIKLLQYTSQICKGMEYLGTKRYIHRDLATRNILVENENRVKIGDFGLTKVLPQDKEYYKVKEPGESPIFWYAPESLTESKFSVASDVWSFGVVLYELFTYIEKSKSPPAEFMRMIGNDKQGQMIVFHLIELLKNNGRLPRPDGCPDEIYMIMTECWNNNVNQRPSFRDLALRVDQIRDNMAG
For B7, the Signal to Noise Ratio with BRB1 Peptide (TR-FRET kinase assay; kinase 1 nM) was 35.5.

B8: SRM (protein)
chain: MEPFLRRRLAFLSFFWDKIWPAGGEPDHGTPGSLDPNTDPVPTLPAEPCSPFPQLFLALYDFTARCGGELSVRRGDRLCALEEGGGYIFARRLSGQPSAGLVPITHVAKASPETLSDQPWYFSGVSRTQAQQLLLSPPNEPGAFLIRPSESSLGGYSLSVRAQAKVCHYRVSMAADGSLYLQKGRLFPGLEELLTYYKANWKLIQNPLLQPCMPQKAPRQDVWERPHSEFALGRKLGEGYFGEVWEGLWLGSLPVAIKVIKSANMKLTDLAKEIQTLKGLRHERLIRLHAVCSGGEPVYIVTELMRKGNLQAFLGTPEGRALRLPPLLGFACQVAEGMSYLEEQRVVHRDLAARNVLVDDGLACKVADFGLARLLKDDIYSPSSSSKIPVKWTAPEAANYRVFSQKSDVWSFGVLLHEVFTYGQCPYEGMTNHETLQQIMRGYRLPRPAACPAEVYVLMLECWRSSPEERPSFATLREKLHAIHRCHP
In the case of B8, the Signal to Noise ratio with BRB1 Peptide (TR-FRET kinase assay; kinase 0.5 nM) is reported as 32.5.

B9: JAK3 (protein)
chain: ALAPRDGLWNGAQLYACQDPTIFEERHLKYISQLGKGNFGSVELCRYDPLGDNTGALVAVKQLQHSGPDQQRDFQREIQILKALHSDFIVKYRGVSYGPGRQSLRLVMEYLPSGCLRDFLQRHRARLDASRLLLYSSQICKGMEYLGSRRCVHRDLAARNILVESEAHVKIADFGLAKLLPLDKDYYVVREPGQSPIFWYAPESLSDNIFSRQSDVWSFGVVLYELFTYCDKSCSPSAEFLRMMGCERDVPALCRLLELLEEGQRLPAPPACPAEVHELMKLCWAPSPQDRPSFSALGPQLDMLWSGSRGCETHAFTAHPEGKHHSLSFS
With B9 the Signal to Noise ratio with BRB1 Peptide (TR-FRET kinase assay; kinase 0.5 nM) was 16.1.

B10: FRK (protein)
chain: MSNICQRLWEYLEPYLPCLSTEADKSTVIENPGALCSPQSQRHGHYFVALFDYQARTAEDLSFRAGDKLQVLDTLHEGWWFARHLEKRRDGSSQQLQGYIPSNYVAEDRSLQAEPWFFGAIGRSDAEKQLLYSENKTGSFLIRESESQKGEFSLSVLDGAVVKHYRIKRLDEGGFFLTRRRIFSTLNEFVSHYTKTSDGLCVKLGKPCLKIQVPAPFDLSYKTVDQWEIDRNSIQLLKRLGSGQFGEVWEGLWNNTTPVAVKTLKPGSMDPNDFLREAQIMKNLRHPKLIQLYAVCTLEDPIYIITELMRHGSLQEYLQNDTGSKIHLTQQVDMAAQVASGMAYLESRNYIHRDLAARNVLVGEHNIYKVADFGLARVFKVDNEDIYESRHEIKLPVKWTAPEAIRSNKFSIKSDVWSFGILLYEIITYGKMPYSGMTGAQVIQMLAQNYRLPQPSNCPQQFYNIMLECWNAEPKERPTFETLRWKLEDYFETDSSYSDANNFIR
B10 showed a Signal to Noise ratio with BRB1 Peptide (TR-FRET kinase assay; kinase 0.5 nM) of 9.7.

B11: CTK (protein)
chain: MAGRGSLVSWRAFHGCDSAEELPRVSPRFLRAWHPPPVSARMPTRRWAPGTQCITKCEHTRPKPGELAFRKGDVVTILEACENKSWYRVKHHTSGQEGLLAAGALREREALSADPKLSLMPWFHGKISGQEAVQQLQPPEDGLFLVRESARHPGDYVLCVSFGRDVIHYRVLHRDGHLTIDEAVFFCNLMDMVEHYSKDKGAICTKLVRPKRKHGTKSAEEELARAGWLLNLQHLTLGAQIGEGEFGAVLQGEYLGQKVAVKNIKCDVTAQAFLDETAVMTKMQHENLVRLLGVILHQGLYIVMEHVSKGNLVNFLRTRGRALVNTAQLLQFSLHVAEGMEYLESKKLVHRDLAARNILVSEDLVAKVSDFGLAKAERKGLDSSRLPVKWTAPEALKHGKFTSKSDVWSFGVLLWEVFSYGRAPYPKMSLKEVSEAVEKGYRMEPPEGCPGPVHVLMSSCWEAEPARRPPFRKLAEKLARELRSAGAPASVSGQDADGSTSPRSQEP
With B11 the Signal to Noise Ratio with BRB1 Peptide (TR-FRET kinase assay; kinase 20 nM) was 2.5.
